# Reference: US20210403527A1 (published 2021)
# Where a chain is given by its changes, count along the chain named.
# B1: TCR188 (TCR, V domains shown)
# Valpha: DAKTTQPNSMESNEEEPVHLPCNHSTISGTDYIHWYRQLPSQGPEYVIHGLTSNVNNRMASLAIAEDRKSSTLILHRATLRDAAVYYCILNTGTASKLTFGTGTRLQVTL
# Vbeta: GAVVSQHPSWVICKSGTSVKIECRSLDFQATTMFWYRQFPKQSLMLMATSNEGSKATYEQGVEKDKFLINHASLTLSTLTVTSAHPEDSSFYICSAKEGTEAFFGQGTRLTVV
# B2: TCR018 (TCR, V domains shown)
# Valpha: AQTVTQSQPEMSVQEAETVTLSCTYDTSESDYYLFWYKQPPSRQMILVIRQEAYKQQNATENRFSVNFQKAAKSFSLKISDSQLGDAAMYFCAYRSANSGYALNFGKGTSLLVTP
# Vbeta: ETGVTQTPRHLVMGMTNKKSLKCEQHLGHNAMYWYKQSAKKPLELMFVYNFKEQTENNSVPSRFSPECPNSSHLFLHLHTLQPEDSALYLCASSQAHYTEAFFGQGTRLTVV
# B3: TCR184 (TCR, V domains shown)
# Valpha: DQQVKQNSPSLSVQEGRISILNCDYTNSMFDYFLWYKKYPAEGPTFLISISSIKDKNEDGRFTVFLNKSAKHLSLHIVPSQPGDSAVYFCAARKNYGGSQGNLIFGKGTKLSVKP
# Vbeta: DAGVTQSPTHLIKTRGQQVTLRCSPISGHKSVSWYQQVLGQGPQFIFQYYEKEERGRGNFPDRFSARQFPNYSSELNVNALLLGDSALYLCASSLGSYDYTFGSGTRLTVV
# B4: TCR063 (TCR, V domains shown)
# Valpha: QKEVEQNSGPLSVPEGAIASLNCTYSDRGSQSFFWYRQYSGKSPELIMSIYSNGDKEDGRFTAQLNKASQYVSLLIRDSQPSDSATYLCAVNILASGGSYIPTFGRGTSLIVHP
# Vbeta: ETGVTQTPRHLVMGMTNKKSLKCEQHLGHNAMYWYKQSAKKPLELMFVYNFKEQTENNSVPSRFSPECPNSSHLFLHLHTLQPEDSALYLCASSHGTGYNYGYTFGSGTRLTVV
# B5: TCR108 (TCR, V domains shown)
# Valpha: GENVEQHPSTLSVQEGDSAVIKCTYSDSASNYFPWYKQELGKRPQLIIDIRSNVGEKKDQRIAVTLNKTAKHFSLHITETQPEDSAVYFCAASMKDSSYKLIFGSGTRLLVRP
# Vbeta: ETGVTQTPRHLVMGMTNKKSLKCEQHLGHNAMYWYKQSAKKPLELMFVYNFKEQTENNSVPSRFSPECPNSSHLFLHLHTLQPEDSALYLCASSQGPGYTFGSGTRLTVV
# B6: TCR317 (TCR, V domains shown)
# Valpha: QKEVEQNSGPLSVPEGAIASLNCTYSDRGSQSFFWYRQYSGKSPELIMSIYSNGDKEDGRFTAQLNKASQYVSLLIRDSQPSDSATYLCAVNSSPYKLSFGAGTTVTVRA
# Vbeta: B5 Vbeta
# B7: TCR001 (TCR, V domains shown)
# Valpha: DAKTTQPNSMESNEEEPVHLPCNHSTISGTDYIHWYRQLPSQGPEYVIHGLTSNVNNRMASLAIAEDRKSSTLILHRATLRDAAVYYCILRPDSWGKFQFGAGTQVVVTP
# Vbeta: NAGVTQTPKFRILKIGQSMTLQCAQDMNHNYMYWYRQDPGMGLKLIYYSVGAGITDKGEVPNGYNVSRSTTEYFPLRLELAAPSQTSVYFCASSYSGGSPLHFGNGTRLTVT
# B8: TCR167 (TCR, V domains shown)
# Valpha: B7 Valpha
# Vbeta: GAVVSQHPSWVICKSGTCVKIECRSLDFQATTMFWYRQFPKQSLMLMATSNEGSKATYEQGVEKDKFLINHASLTLSTLTVAGAHPEDSSFYICSAMTVMNTEAFFGQGTRLTVV
# B9: TCR050 (TCR, V domains shown)
# Valpha: DAKTTQPNSMESNEEEPVHLPCNHSTISGTDYIHWYRQLPSQGPEYVIHGLTSNVNNRMASLAIAEDRKSSTLILHRATLRDAAVYYCILREGNNDMRFGAGTRLTVKP
# Vbeta: B7 Vbeta with Y95W, S96T, G97D, G98N, S99Q, L101Q, N105D, T110S, V111I, T112L
# B10: TCR090 (TCR, V domains shown)
# Valpha: GENVEQHPSTLSVQEGDSSVIKCTYSDSASNYFPWYKQELGKRPQLIIDIRSNVGEKKDQRIAVTLNKTAKHFSLHITETQPEDSAVYFCAATGYGQNFVFGPGTRLSVLP
# Vbeta: EAQVTQNPRYLITVTGKKLTVTCSQNMNHEYMSWYRQDPGLGLRQIYYSMNVEVTDKGDVPEGYKVSRKEKRNFPLILESPSPNQTSLYFCASSLRGPYGYTFGSGTRLTVV
# Target: T1, NY-ESO-1 peptide on HLA-A*02:01 (human)
# T1 peptide: SLLMWITQC
# Test: multimer staining
row,Binder,binding result
1,B1,recognises
2,B2,recognises
3,B3,recognises
4,B4,recognises
5,B5,recognises
6,B6,recognises
7,B7,recognises
8,B8,recognises
9,B9,recognises
10,B10,recognises
